Results on 18 sequences are retold here after the Immune Epitope Database (IEDB).

As a reminder, the Kd is the concentration at which binding is half-saturated.

In one test the target is HLA-B*08:01. Put plainly: IEDB peptide-MHC binding, purified MHC/competitive/radioactivity; filed as Kd, often an IC50 or EC50 that approximates it; ≥ and ≤ were set here for values at or beyond the usual limits of such assays.
Another test addresses HLA-A*26:01. Described as above.
The target of the next test is HLA-A*24:02. The description is as above.
Another test deals with HLA-A*30:02. The description is as above.
The next test addresses HLA-A*23:01. The test is described as above.
Another test concerns the target HLA-A*29:02. The test is described as above.
Test [1] concerns the target HLA-A*11:01. The experiment in a line: IEDB peptide-MHC binding, purified MHC/direct/fluorescence; filed as Kd, often an IC50 or EC50 that approximates it; ≥ and ≤ were set here for values at or beyond the usual limits of such assays. The settings on record: source organism: SARS-CoV1.
Test [2] deals with HLA-A*03:01. Described as above. The settings on record: source organism: SARS-CoV1.
A further test addresses HLA-B*27:05. The description is as above. The settings on record: source organism: SARS-CoV1.
The target of test [3] is HLA-A*01:01. The test is described as above. To be noted: source organism: SARS-CoV1.
Another test has as its target HLA-B*15:01. Described as above. To be noted: source organism: SARS-CoV1.
In test [4] the target is HLA-A*01:01. Put plainly: IEDB peptide-MHC binding, purified MHC/competitive/radioactivity; filed as Kd, often an IC50 or EC50 that approximates it; ≥ and ≤ were set here for values at or beyond the usual limits of such assays.
A further test concerns the target HLA-B*53:01. The description is as above.
For test [5], the target named is HLA-A*11:01. The test is described as above. The settings on record: source organism: SARS coronavirus Tor2.
In another test the target is HLA-A*68:01. Described as above. To be noted: source organism: SARS coronavirus Tor2.
In test [6] the target is HLA-A*03:01. Described as above. The settings on record: source organism: SARS coronavirus Tor2.
The next test deals with HLA-A*31:01. The description is as above. The settings on record: source organism: SARS coronavirus Tor2.
The next test concerns the target HLA-A*33:01. The description is as above. To be noted: source organism: SARS coronavirus Tor2.
The mark [7] stands for this setting: source organism: SARS coronavirus Tor2.
The mark [8] stands for this setting: source organism: Vaccinia virus WR.
[9] abbreviates: source organism: Dengue virus 4 Philippines/H241/1956.
Setting [10] is: source organism: Dengue virus 1 Brazil/97-11/1997.
Setting [11] is: source organism: Mammarenavirus choriomeningitidis.
Where [12] appears, read: source organism: Mammarenavirus lassaense.

With LKGMSYAMCL, the Kd with HLA-B*08:01 (source organism: Dengue virus 3 Singapore/8120/1995) was 438 nM.

With RVDFCGKGY, the Kd with HLA-A*26:01 (setting [7]) is 7680 nM; in the test with HLA-A*24:02 (setting [7]), at least 77600 nM; in the test with HLA-A*30:02 (setting [7]) it was 20 nM; with HLA-A*23:01 (setting [7]) it was at least 77800 nM; in the test with HLA-A*29:02 (setting [7]), 9230 nM; with HLA-A*11:01 [1], 7730 nM. The Kd amounted to 1890 nM with HLA-A*03:01 [2], 3890 nM in the test with HLA-B*27:05, 1000 nM with HLA-A*01:01 [3] and 1090 nM with HLA-B*15:01.

With NRRRRTAGV, the Kd with HLA-B*08:01 (source organism: Dengue virus 2 Jamaica/1409/1983) was determined as 121 nM.

In the case of LLKLGFEEI, the dissociation constant (Kd) with HLA-B*08:01 (setting [8]) was 510 nM.

Consider DNAFNCTFEY, for which the dissociation constant (Kd) was 132 nM with HLA-A*26:01 (setting [7]); at least 70300 nM with HLA-A*24:02 (setting [7]); 382 nM with HLA-A*30:02 (setting [7]); at least 70000 nM with HLA-A*23:01 (setting [7]); 4250 nM with HLA-A*01:01 [4] (setting [7]); 14.4 nM in the test with HLA-A*29:02 (setting [7]).

Take YNKQSLVSL: the dissociation constant (Kd) with HLA-B*08:01 (setting [8]) is 30.1 nM.

Take HFAIGLALYY: the Kd with HLA-A*26:01 (setting [7]) was 6.53 nM; with HLA-A*24:02 (setting [7]), at least 70300 nM; in the test with HLA-A*30:02 (setting [7]) it was 236 nM; with HLA-A*23:01 (setting [7]) it was at least 60900 nM; with HLA-A*01:01 [4] (setting [7]), 2320 nM; with HLA-A*29:02 (setting [7]) it was 0.233 nM.

For the sequence RMVMTTTANW, the Kd is 20.5 nM with HLA-B*53:01 (setting [9]) and 52.8 nM with HLA-A*23:01 (setting [9]).

With MTTEDMLSVW, the Kd was 2090 nM with HLA-A*26:01 (setting [10]) and 856 nM in the test with HLA-B*53:01 (setting [10]).

For the sequence RYNTRGNTY, the Kd is at least 52200 nM with HLA-A*26:01 (setting [7]); 1790 nM with HLA-A*24:02 (setting [7]); 31.3 nM with HLA-A*30:02 (setting [7]); 8930 nM with HLA-A*23:01 (setting [7]); 13900 nM with HLA-A*01:01 [4] (setting [7]); 1770 nM with HLA-A*29:02 (setting [7]).

Regarding WCSQTDYQY, the Kd with HLA-A*26:01 (setting [11]) was at least 77900 nM; with HLA-A*24:02 (setting [11]), at least 77500 nM; with HLA-A*30:02 (setting [11]), 342 nM; with HLA-A*23:01 (setting [11]), at least 77700 nM; in the test with HLA-A*01:01 [4] (setting [11]) it was 1160 nM; with HLA-A*29:02 (setting [11]) it was 258 nM.

FDEISMATNY: the Kd with HLA-A*26:01 (setting [7]) was 699 nM; with HLA-A*24:02 (setting [7]), at least 70300 nM; with HLA-A*30:02 (setting [7]), 4100 nM; with HLA-A*23:01 (setting [7]), at least 70000 nM; in the test with HLA-A*01:01 [4] (setting [7]), 13000 nM; in the test with HLA-A*29:02 (setting [7]), 18.4 nM.

As for TPELEEEMF, the Kd in the test with HLA-B*53:01 (source organism: Dengue virus 3 Martinique/1243/1999) was 1970 nM.

Consider MYIFFASFYY, for which the Kd amounted to 575 nM with HLA-A*26:01 (setting [7]); 6650 nM in the test with HLA-A*24:02 (setting [7]); 9.07 nM in the test with HLA-A*30:02 (setting [7]); 722 nM with HLA-A*23:01 (setting [7]); 6700 nM with HLA-A*01:01 [4] (setting [7]); 0.449 nM with HLA-A*29:02 (setting [7]).

For CKDGHVETFY, the Kd with HLA-A*26:01 (setting [7]) was 3870 nM; with HLA-A*24:02 (setting [7]) it was at least 70300 nM; with HLA-A*30:02 (setting [7]), 506 nM; in the test with HLA-A*23:01 (setting [7]), at least 70000 nM; with HLA-A*01:01 [4] (setting [7]) it was 8080 nM; with HLA-A*29:02 (setting [7]) it was 171 nM.

Take KSAQCFKMFY: the Kd in the test with HLA-A*26:01 (setting [7]) is at least 86900 nM; with HLA-A*24:02 (setting [7]), 4700 nM; in the test with HLA-A*30:02 (setting [7]) it was at least 21200 nM; with HLA-A*23:01 (setting [7]) it was 5090 nM; with HLA-A*11:01 [5] it was 2250 nM; with HLA-A*68:01, 1450 nM. Also, the Kd was 5060 nM with HLA-A*03:01 [6]; at least 89300 nM with HLA-A*01:01 [4] (setting [7]); 629 nM in the test with HLA-A*31:01; 75.3 nM in the test with HLA-A*29:02 (setting [7]); 753 nM with HLA-A*33:01.

For LWLLWPVTL, the equilibrium dissociation constant (Kd) with HLA-A*26:01 (setting [7]) was at least 77900 nM; with HLA-A*30:02 (setting [7]), 5030 nM; with HLA-A*23:01 (setting [7]), 7.42 nM; with HLA-A*01:01 [4] (setting [7]) it was at least 78100 nM; with HLA-A*29:02 (setting [7]), 1840 nM.

For the sequence AGFPAGLTY, the Kd with HLA-A*26:01 (setting [12]) was at least 77900 nM; with HLA-A*24:02 (setting [12]), at least 77500 nM; with HLA-A*30:02 (setting [12]) it was 287 nM; in the test with HLA-A*23:01 (setting [12]), at least 77700 nM; in the test with HLA-A*01:01 [4] (setting [12]), at least 78100 nM; with HLA-A*29:02 (setting [12]) it was 68.9 nM.
